Results from article PMC6959593.

Assays:
[1] = target: VEGFR-2 of HUVECs (human (endogenous in HUVECs)) (UniProt P35968)
[2] = target: VEGFR-2 of HUVECs (human (endogenous in HUVECs)) (UniProt P35968); remark: listed apart in the source
[3] = target: VEGFR-2 of HUVECs (human (endogenous in HUVECs)) (UniProt P35968); experiment: proximity ligation; Duolink in situ PLA on HUVECs treated with VEGF/CaD for 2 min, fixed in paraformaldehyde and permeabilized; goat anti-VEGF and rabbit anti-VEGFR2 antibodies overnight at 4°C; dots per cell counted with ImageJ

Sequence of UniProt P35968 (P35968 20-1356): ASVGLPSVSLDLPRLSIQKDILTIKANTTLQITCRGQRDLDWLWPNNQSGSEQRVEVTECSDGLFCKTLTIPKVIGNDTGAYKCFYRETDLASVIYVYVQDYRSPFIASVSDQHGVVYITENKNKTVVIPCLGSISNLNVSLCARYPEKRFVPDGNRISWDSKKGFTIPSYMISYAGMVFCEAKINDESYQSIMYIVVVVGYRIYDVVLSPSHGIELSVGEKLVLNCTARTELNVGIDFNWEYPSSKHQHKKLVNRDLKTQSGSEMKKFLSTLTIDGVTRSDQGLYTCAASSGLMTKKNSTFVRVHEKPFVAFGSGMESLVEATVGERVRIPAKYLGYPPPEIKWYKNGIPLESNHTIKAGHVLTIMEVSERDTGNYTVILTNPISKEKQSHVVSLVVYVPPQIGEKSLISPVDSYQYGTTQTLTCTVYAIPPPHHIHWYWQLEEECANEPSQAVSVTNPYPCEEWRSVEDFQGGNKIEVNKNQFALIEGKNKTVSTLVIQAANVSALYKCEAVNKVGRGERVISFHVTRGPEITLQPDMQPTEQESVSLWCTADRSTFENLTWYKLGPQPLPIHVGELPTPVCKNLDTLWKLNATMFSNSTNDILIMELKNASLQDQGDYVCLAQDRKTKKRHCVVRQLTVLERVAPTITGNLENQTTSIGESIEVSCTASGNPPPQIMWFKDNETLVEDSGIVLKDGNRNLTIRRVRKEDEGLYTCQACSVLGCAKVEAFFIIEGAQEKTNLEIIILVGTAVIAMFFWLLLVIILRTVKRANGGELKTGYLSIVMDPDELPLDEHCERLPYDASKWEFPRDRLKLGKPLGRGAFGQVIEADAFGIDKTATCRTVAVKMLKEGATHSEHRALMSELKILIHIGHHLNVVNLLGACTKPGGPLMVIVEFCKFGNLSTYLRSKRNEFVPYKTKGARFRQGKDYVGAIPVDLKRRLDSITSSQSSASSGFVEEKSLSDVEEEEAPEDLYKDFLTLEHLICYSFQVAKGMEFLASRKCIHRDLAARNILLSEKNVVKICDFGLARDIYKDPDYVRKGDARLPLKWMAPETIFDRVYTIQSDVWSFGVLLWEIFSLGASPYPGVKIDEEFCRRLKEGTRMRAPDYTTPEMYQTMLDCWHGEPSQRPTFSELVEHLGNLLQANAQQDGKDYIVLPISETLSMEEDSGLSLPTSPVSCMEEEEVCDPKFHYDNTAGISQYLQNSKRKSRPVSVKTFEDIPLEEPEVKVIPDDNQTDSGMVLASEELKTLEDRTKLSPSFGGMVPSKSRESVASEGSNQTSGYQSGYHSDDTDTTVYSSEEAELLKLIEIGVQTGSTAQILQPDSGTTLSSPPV

- VEGF165 (25 ng/ml)-induced phosphorylation of VEGFR-2 in heparanase (HPSE, 0.5 μg/ml)-treated HUVECs, with CaD (100 μM), relative to VEGF alone (Western blot) [1]: 50%
- VEGF165 (25 ng/mL)-induced phosphorylation of VEGFR-2 in HUVECs (Western blot, 2 min), VEGF165 premixed with CaD (6-100 μM) for 60 min [2]: < 50%
- decrease of the PLA signal in the presence of CaD [3]: 60%
Substance: recombinant VEGF165 (ligand)
